Values quoted from earlier work, collected in publication PMC5725453.

Molecular target: PI4KB (Homo sapiens) (UniProt Q9UBF8)
UniProt Q9UBF8, sequence (Q9UBF8 2-816): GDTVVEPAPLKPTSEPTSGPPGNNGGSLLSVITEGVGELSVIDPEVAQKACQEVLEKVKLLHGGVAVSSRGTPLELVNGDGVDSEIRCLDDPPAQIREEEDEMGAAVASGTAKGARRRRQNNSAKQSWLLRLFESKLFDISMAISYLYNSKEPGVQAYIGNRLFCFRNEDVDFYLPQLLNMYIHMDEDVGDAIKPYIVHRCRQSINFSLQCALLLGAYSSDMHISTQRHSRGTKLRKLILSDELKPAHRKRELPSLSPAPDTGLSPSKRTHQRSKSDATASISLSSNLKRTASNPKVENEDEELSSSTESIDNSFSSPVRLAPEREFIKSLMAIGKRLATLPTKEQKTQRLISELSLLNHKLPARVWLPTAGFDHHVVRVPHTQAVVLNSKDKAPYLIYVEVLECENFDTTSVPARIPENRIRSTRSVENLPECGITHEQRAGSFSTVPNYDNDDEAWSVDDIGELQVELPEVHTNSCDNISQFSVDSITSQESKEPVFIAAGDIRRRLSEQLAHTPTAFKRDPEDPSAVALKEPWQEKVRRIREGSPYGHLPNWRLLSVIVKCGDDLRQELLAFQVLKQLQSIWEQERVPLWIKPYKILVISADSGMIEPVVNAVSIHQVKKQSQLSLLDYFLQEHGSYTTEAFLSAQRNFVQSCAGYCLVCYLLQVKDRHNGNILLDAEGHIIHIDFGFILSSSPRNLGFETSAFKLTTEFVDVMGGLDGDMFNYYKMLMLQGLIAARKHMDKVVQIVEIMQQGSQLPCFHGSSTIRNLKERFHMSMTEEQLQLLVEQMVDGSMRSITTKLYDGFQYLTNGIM

Substance: ACBD3 (from UniProt Q9H3P7)
- Kd: 320 nM
